Test system: cells of the human embryonic stem cell line H1 differentiated to stage 5
Assay: Immunostaining for insulin protein expression at the end of Stage 5
Format: cell-based
Settings: 50 or 100 ng/ml for three days at stage 5, immunostaining vs control; FIG. 2, FIG. 3
Experimental: Cells of the human embryonic stem cell line H1 (hESC H1, passage 40) were seeded as single cells at 1×10^5 cells/cm^2 on MATRIGEL™ (1:30 dilution; BD Biosciences, NJ)-coated dishes in mTeSR®1 media supplemented with 10 μM of Y27632. Forty-eight hours post seeding, cultures were washed in incomplete PBS (phosphate buffered saline without Mg or Ca). Cultures were differentiated into pancreatic endoderm/endocrine lineages as follows: • a) Stage 1 (Definitive Endoderm (DE)—3 days): Cells were cultured for one day in stage 1 media (see Example 1, above). Cells were then cultured for an additional day in MCDB-131 medium supplemented with 0.1% fatty acid-free BSA, 0.0012 g/ml sodium bicarbonate, 1× GlutaMax™, 4.5 mM D-Glucose, 100 ng/ml GDF8, and 0.1 μM MCX compound. […]

B1: Ephrin-A4: Ephrin ligand protein, R & D Systems catalogue number 369-EA (protein, UniProt P52798 26-170, looked up)
Ephrin-A4: LRHVVYWNSSNPRLLRGDAVVELGLNDYLDIVCPHYEGPGPPEGPETFALYMVDWPGYESCQAEGPRAYKRWVCSLPFGHVQFSEKIQRFTPFSLGFEFLPGETYYYISVPTPESSGQCLRLQVSVCCKERKSESAHPVGSPGES
For B1, the “protein expression of insulin” value was “significantly enhanced”.

Source: US10208288B2, “Differentiation of human embryonic stem cells into pancreatic endocrine cells” (Janssen Biotech, Inc., priority 2012, dated 2019)
